Experimental data as given in patent US20240182536A1 (MURAL ONCOLOGY, published 2024).
Positions count from the first letter of the chain named. Numbers in names are those of the source. Read-outs that look alike come from different tables or passages of the source.

B1: IL-18 variant G3A, K53S (ligand)
chain: YFAKLESKLSVIRNLNDQVLFIDQGNRPLFEDMTDSDMRDNAPRTIFIISMYSDSQPRGMAVTISVKSEKISTLSSENKIISFKEMNPPDNIKDTKSDIIFFQRSVPGHDNKMQFESSSYEGYFLASEKERDLFKLILKKEDELGDRSIMFTVQNED
B2: IL-18 variant G3F, K53S (ligand)
chain: B1 chain with A3F
B3: IL-18 variant G3H, N91V, K53S (ligand)
chain: B1 chain with A3H, N91V
notes: also called G3H/K53S/N91V
B4: IL-18 variant G3K, N91I, K53S (ligand)
chain: B1 chain with A3K, N91I
B5: IL-18 variant G3R, N91A, K53S (ligand)
chain: B1 chain with A3R, N91A
notes: also called G3R/K53S/N91A
B6: IL-18 variant G3R, N91M, K53A (ligand)
chain: B1 chain with A3R, S53A, N91M
notes: also called G3R/K53A/N91M
B7: IL-18 variant G3R, N91M, K53S (ligand)
chain: B1 chain with A3R, N91M
notes: also called G3R/K53S/N91M
B8: IL-18 variant G3R, N91S, K53A (ligand)
chain: B1 chain with A3R, S53A, N91S
B9: IL-18 variant G3R, N91W, K53A (ligand)
chain: B1 chain with A3R, S53A, N91W
notes: also called G3R/K53A/N91W
B10: IL-18 variant G3S, K53S (ligand)
chain: B1 chain with A3S
B11: Comparator 1 (ligand)
chain: YFGKLESKLSVIRNLNDQVLFIDQGNRPLFEDMTDSDCRDNAPRTIFIISKYSDSLARGLAVTISVKCEKISTLSCENKIISFKEMNPPDNIKDTKSDIIFFQRDVPGHSRKMQFESSSYEGYFLACEKERDLFKLILKKEDELGDRSIMFTVQNED
notes: Human IL-18 variant M51K, K53S, Q56L, P57A, M60L, S105D, D110S, N111R; also called IL-18 Comparator 1
B12: human IL-18 variant G3T/E6K/K53A/M60K (ligand)
chain: B1 chain with A3T, E6K, S53A, M60K
B13: human IL-18 variant G3T/E6K/K53S/M60K (ligand)
chain: B1 chain with A3T, E6K, M60K
B14: human IL-18 variant G3T/K53A/M60K (ligand)
chain: B1 chain with A3T, S53A, M60K
B15: human IL-18 variant G3T/K53S/M60K (ligand)
chain: B1 chain with A3T, M60K
B16: human IL-18 variant G3V/E6K/K53A/M60K (ligand)
chain: B1 chain with A3V, E6K, S53A, M60K
B17: human IL-18 variant G3V/E6K/K53S/M60K (ligand)
chain: B1 chain with A3V, E6K, M60K
B18: human IL-18 variant G3V/K53A/M60K (ligand)
chain: B1 chain with A3V, S53A, M60K
B19: human IL-18 variant G3V/K53S/M60K (ligand)
chain: B1 chain with A3V, M60K

Legend:
[1] = biological target: T1, human IL-18 binding protein (IL-18BP) (human, UniProt O95998 31-194); test: Octet BLI
T1 construct: also called hu IL-18BP; hIL18BP
T1 sequence (looked up): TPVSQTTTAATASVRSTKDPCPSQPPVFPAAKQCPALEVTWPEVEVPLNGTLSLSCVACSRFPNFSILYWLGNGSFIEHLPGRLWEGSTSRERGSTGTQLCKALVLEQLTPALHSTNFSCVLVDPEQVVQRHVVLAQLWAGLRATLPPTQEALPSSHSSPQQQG
Procedure: (§1) Octet 96red instrument was used to determine affinities of IL18 proteins to BP or receptors. 5-10 ug/ml analyte proteins were used for loading on Sartorius tips (AHC or SA). […] 120-180 s loading, 200 s association and 800 s dissociation were used for kinetics. 3-7 data points were used to calculate affinities.
Select G3/K53-substitution containing IL-18 variants and select G3/K53/N91-substitution containing TL-18 variants were tested for activity in the HEK-blue activity assay and for binding affinity to IL-18BP. As shown in the data of Table 15 and Table 16 below, each variant had similar or better activity than WT IL-18, and retained substantial activity in the presence of IL-18BP.

[2] = biological target: T1, human IL-18 binding protein (IL-18BP); test: cell-based or functional assay
[3] = biological target: T2, IL-18 receptors on HEK-Blue IL-18 reporter cells (InvivoGen) (UniProt Q13478 19-541; O95256 20-599); test: cell-based or functional assay
T2 sequence (looked up) 1: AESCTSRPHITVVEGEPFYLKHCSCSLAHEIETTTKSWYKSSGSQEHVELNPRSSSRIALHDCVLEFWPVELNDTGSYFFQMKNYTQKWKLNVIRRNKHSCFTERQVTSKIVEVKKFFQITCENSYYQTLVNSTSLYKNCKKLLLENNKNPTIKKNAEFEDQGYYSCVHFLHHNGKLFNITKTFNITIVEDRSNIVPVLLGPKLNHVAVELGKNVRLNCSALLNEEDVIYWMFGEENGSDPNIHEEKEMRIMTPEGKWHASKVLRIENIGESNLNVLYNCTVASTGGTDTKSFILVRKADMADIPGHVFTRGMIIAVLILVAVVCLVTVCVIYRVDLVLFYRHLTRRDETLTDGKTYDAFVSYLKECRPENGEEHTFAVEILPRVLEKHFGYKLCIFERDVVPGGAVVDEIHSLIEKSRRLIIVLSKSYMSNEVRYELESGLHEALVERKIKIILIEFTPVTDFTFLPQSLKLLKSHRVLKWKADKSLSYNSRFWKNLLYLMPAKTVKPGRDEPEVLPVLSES
T2 sequence (looked up) 2: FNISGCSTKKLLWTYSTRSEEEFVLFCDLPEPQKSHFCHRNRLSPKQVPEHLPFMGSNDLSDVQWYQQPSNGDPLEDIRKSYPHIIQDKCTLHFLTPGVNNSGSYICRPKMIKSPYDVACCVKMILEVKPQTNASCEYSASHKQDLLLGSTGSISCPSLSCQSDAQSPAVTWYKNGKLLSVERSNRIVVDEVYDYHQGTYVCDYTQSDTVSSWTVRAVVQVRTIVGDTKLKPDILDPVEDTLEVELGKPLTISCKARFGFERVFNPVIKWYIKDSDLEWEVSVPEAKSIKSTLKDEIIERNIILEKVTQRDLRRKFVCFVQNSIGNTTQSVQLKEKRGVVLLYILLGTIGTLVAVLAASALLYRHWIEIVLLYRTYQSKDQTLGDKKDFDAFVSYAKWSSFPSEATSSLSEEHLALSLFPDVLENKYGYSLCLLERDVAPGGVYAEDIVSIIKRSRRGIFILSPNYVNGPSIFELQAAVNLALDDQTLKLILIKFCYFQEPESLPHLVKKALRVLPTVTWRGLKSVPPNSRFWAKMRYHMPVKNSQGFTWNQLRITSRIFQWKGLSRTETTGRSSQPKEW

[4] = biological target: T3, IL-18 receptor (IL-18Rα and IL-18Rβ) (UniProt Q13478 19-541; O95256 20-599, limits assumed); test: cell-based or functional assay
T3 sequence (looked up) 1: T2 sequence (looked up) 1
T3 sequence (looked up) 2: T2 sequence (looked up) 2

[5] = biological target: T1, human IL-18 binding protein (IL-18BP); test: cell-based or functional assay; remark: listed apart in the source
[6] = biological target: T2, IL-18 receptors on HEK-Blue IL-18 …; test: cell-based or functional assay; remark: listed apart in the source
IL-18 receptor alpha = biological target: T4, IL-18 receptor alpha (UniProt Q13478 19-329, limits assumed); test: Octet BLI
T4 construct: also called IL-18 Rα; IL-18Rα
T4 sequence (looked up): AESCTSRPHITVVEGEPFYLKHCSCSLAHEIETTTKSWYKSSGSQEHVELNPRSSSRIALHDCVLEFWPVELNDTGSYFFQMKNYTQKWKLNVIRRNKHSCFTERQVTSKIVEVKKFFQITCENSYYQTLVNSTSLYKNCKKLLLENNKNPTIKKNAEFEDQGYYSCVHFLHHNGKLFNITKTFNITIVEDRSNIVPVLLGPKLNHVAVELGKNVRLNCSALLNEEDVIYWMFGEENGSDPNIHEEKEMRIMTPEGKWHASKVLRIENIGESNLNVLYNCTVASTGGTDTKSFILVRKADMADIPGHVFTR
Procedure: as §1
Additional IL-18 variants were generated and tested based on the results above with G3 variants, E6 variants, K53 variants, and M60 variants. The new variants were first tested for binding to IL-18Rα and IL-18BP by octet, as described above.

[7] = biological target: T5, human IL-18 binding protein (human, UniProt O95998 31-194); test: cell-based or functional assay
T5 sequence (looked up): T1 sequence (looked up)

[8] = biological target: T6, IL-18 receptors on HEK-Blue IL-18 reporter cells (UniProt Q13478 19-541; O95256 20-599, limits assumed); test: cell-based or functional assay
T6 sequence (looked up) 1: T2 sequence (looked up) 1
T6 sequence (looked up) 2: T2 sequence (looked up) 2

[9] = biological target: T5, human IL-18 binding protein; test: cell-based or functional assay; remark: listed apart in the source
[10] = biological target: T6, IL-18 receptors on HEK-Blue IL-18 …; test: cell-based or functional assay; remark: listed apart in the source

Binder | Kd [1] | koff [1] | kon [1] | HEK-Blue Ec50 (pM), +IL-18BP (50 nM) [2] | HEK-Blue Ec50 (pM), -IL-18BP [3] | EC50 pM, IFN gamma expression in PBMCs [4] | HEK-Blue Ec50 (pM), +IL-18BP (50 nM) [5] | HEK-Blue Ec50 (pM), -IL-18BP [6] | Kd (IL-18 receptor alpha) | HEK-blue EC50 (pM) + 300 nM BP [7] | HEK-blue EC50 (pM) - BP [8] | HEK-blue EC50 (pM) + 1000 nM BP [9] | HEK-blue EC50 (pM) - BP [10]
B1 | 16.2 nM | 0.00398 s⁻¹ | 245000 M⁻¹ s⁻¹ | 4.45 pM | 1.69 pM | – | – | – | – | – | – | – | –
B2 | 11.8 nM | 0.0048 s⁻¹ | 408000 M⁻¹ s⁻¹ | 5.88 pM | 3.39 pM | – | – | – | – | – | – | – | –
B3 | 8.6 nM | 0.0031 s⁻¹ | 359000 M⁻¹ s⁻¹ | – | – | 222 pM | 2.51 pM | 0.94 pM | – | – | – | – | –
B4 | 1.9 nM | 0.000406 s⁻¹ | 218000 M⁻¹ s⁻¹ | – | – | – | 7.05 pM | 0.2 pM | – | – | – | – | –
B5 | 3.4 nM | 0.000728 s⁻¹ | 213000 M⁻¹ s⁻¹ | – | – | – | 2.27 pM | 0.25 pM | – | – | – | – | –
B6 | 1.5 nM | 0.00031 s⁻¹ | 208000 M⁻¹ s⁻¹ | – | – | – | 1.67 pM | 0.06 pM | – | – | – | – | –
B7 | 3.3 nM | 0.000735 s⁻¹ | 223000 M⁻¹ s⁻¹ | – | – | 73.9 pM | 2.16 pM | 0.12 pM | – | – | – | – | –
B8 | 0.9 nM | 0.000162 s⁻¹ | 191000 M⁻¹ s⁻¹ | – | – | – | 2.8 pM | 0.05 pM | – | – | – | – | –
B9 | 1 nM | 0.000185 s⁻¹ | 185000 M⁻¹ s⁻¹ | – | – | 49.8 pM | 4.22 pM | 0.04 pM | – | – | – | – | –
B10 | 12 nM | 0.00338 s⁻¹ | 283000 M⁻¹ s⁻¹ | 4.43 pM | 2.06 pM | – | – | – | – | – | – | – | –
B11 | – | – | – | – | – | – | – | – | 16 nM | – | – | – | –
B12 | – | – | – | – | – | – | – | – | 222 nM | 0.062 pM | 0.061 pM | 0.065 pM | 0.054 pM
B13 | – | – | – | – | – | – | – | – | 536 nM | 0.308 pM | 0.33 pM | 0.231 pM | 0.252 pM
B14 | – | – | – | – | – | – | – | – | 2260 nM | 1.01 pM | 0.843 pM | 1.31 pM | 1.88 pM
B15 | – | – | – | – | – | – | – | – | 5050 nM | 4.99 pM | 4.26 pM | 4.1 pM | 5.53 pM
B16 | – | – | – | – | – | – | – | – | 82 nM | 0.033 pM | 0.026 pM | 0.028 pM | 0.031 pM
B17 | – | – | – | – | – | – | – | – | 324 nM | 0.098 pM | 0.079 pM | 0.095 pM | 0.089 pM
B18 | – | – | – | – | – | – | – | – | 488 nM | 0.063 pM | 0.041 pM | 0.075 pM | 0.086 pM
B19 | – | – | – | – | – | – | – | – | 5310 nM | 2.18 pM | 2.11 pM | 2.61 pM | 0.021 pM
